This is an account of results in the Human Domainome abundance scans (Beltran et al. 2025).

First the molecules themselves.
B1: Protein S100-G, residues 1 to 79; numbered along this chain, P02633 (parent)
chain: MSAKKSPEELKGIFEKYAAKEGDPNQLSKEELKLLLQTEFPSLLKGPSTLDELFEELDKNGDGEVSFEEFQVLVKKISQ

± gives the uncertainty stated by the source.

In the data set the parent is B1. The data set can be described thus: abundance fitness (aPCA) (normalised: wild type 0, dead -1); higher = more abundant; growth selection in yeast, the domain comes from the species named. The conditions noted are these: Bos taurus.
For MSAKKSPEELKGIFGKYAAKEGDPNQLSKEELKLLLQTEFPSLLKGPSTLDELFEELDKNGDGEVSFEEFQVLVKKISQ, the abundance fitness was -0.062 ± 0.072.
The value for MSAKKSPEELKGIFKKYAAKEGDPNQLSKEELKLLLQTEFPSLLKGPSTLDELFEELDKNGDGEVSFEEFQVLVKKISQ was -0.031 ± 0.087; that for MSAKKSPEELKGIFSKYAAKEGDPNQLSKEELKLLLQTEFPSLLKGPSTLDELFEELDKNGDGEVSFEEFQVLVKKISQ was -0.009 ± 0.065; that for MSAKKSPEELKGIFVKYAAKEGDPNQLSKEELKLLLQTEFPSLLKGPSTLDELFEELDKNGDGEVSFEEFQVLVKKISQ was -0.044 ± 0.071.
With MSAKKSPEELKGIFYKYAAKEGDPNQLSKEELKLLLQTEFPSLLKGPSTLDELFEELDKNGDGEVSFEEFQVLVKKISQ the figure was 0.077 ± 0.086; with MSAKKSPEELKGIFAKYAAKEGDPNQLSKEELKLLLQTEFPSLLKGPSTLDELFEELDKNGDGEVSFEEFQVLVKKISQ, -0.039 ± 0.069; with MSAKKSPEELKGIFFKYAAKEGDPNQLSKEELKLLLQTEFPSLLKGPSTLDELFEELDKNGDGEVSFEEFQVLVKKISQ, 0.016 ± 0.079.
The value for MSAKKSPEELKGIFNKYAAKEGDPNQLSKEELKLLLQTEFPSLLKGPSTLDELFEELDKNGDGEVSFEEFQVLVKKISQ was -0.042 ± 0.083; that for MSAKKSPEELKGIFQKYAAKEGDPNQLSKEELKLLLQTEFPSLLKGPSTLDELFEELDKNGDGEVSFEEFQVLVKKISQ was 0.024 ± 0.084.
Consider MSAKKSPEELKGIFPKYAAKEGDPNQLSKEELKLLLQTEFPSLLKGPSTLDELFEELDKNGDGEVSFEEFQVLVKKISQ, for which the abundance fitness was -0.722 ± 0.08.
On to MSAKKSPEELKGIFCKYAAKEGDPNQLSKEELKLLLQTEFPSLLKGPSTLDELFEELDKNGDGEVSFEEFQVLVKKISQ, for which the abundance fitness was -0.152 ± 0.093.
The value for MSAKKSPEELKGIFHKYAAKEGDPNQLSKEELKLLLQTEFPSLLKGPSTLDELFEELDKNGDGEVSFEEFQVLVKKISQ was 0.018 ± 0.088; that for MSAKKSPEELKGIFWKYAAKEGDPNQLSKEELKLLLQTEFPSLLKGPSTLDELFEELDKNGDGEVSFEEFQVLVKKISQ was -0.048 ± 0.093.
With MSAKKSPEELKGIFMKYAAKEGDPNQLSKEELKLLLQTEFPSLLKGPSTLDELFEELDKNGDGEVSFEEFQVLVKKISQ the figure was 0.058 ± 0.082.
With MSAKKSPEELKGIFTKYAAKEGDPNQLSKEELKLLLQTEFPSLLKGPSTLDELFEELDKNGDGEVSFEEFQVLVKKISQ the figure was 0.065 ± 0.071; with MSAKKSPEELKGIFDKYAAKEGDPNQLSKEELKLLLQTEFPSLLKGPSTLDELFEELDKNGDGEVSFEEFQVLVKKISQ, -0.047 ± 0.093.
As to MSAKKSPEELKGIFEEYAAKEGDPNQLSKEELKLLLQTEFPSLLKGPSTLDELFEELDKNGDGEVSFEEFQVLVKKISQ, the abundance fitness was -0.105 ± 0.085.
The value for MSAKKSPEELKGIFEMYAAKEGDPNQLSKEELKLLLQTEFPSLLKGPSTLDELFEELDKNGDGEVSFEEFQVLVKKISQ was -0.145 ± 0.08; that for MSAKKSPEELKGIFEAYAAKEGDPNQLSKEELKLLLQTEFPSLLKGPSTLDELFEELDKNGDGEVSFEEFQVLVKKISQ was -0.058 ± 0.069; that for MSAKKSPEELKGIFEYYAAKEGDPNQLSKEELKLLLQTEFPSLLKGPSTLDELFEELDKNGDGEVSFEEFQVLVKKISQ was -0.102 ± 0.092.
The value for MSAKKSPEELKGIFEGYAAKEGDPNQLSKEELKLLLQTEFPSLLKGPSTLDELFEELDKNGDGEVSFEEFQVLVKKISQ was -0.213 ± 0.07; that for MSAKKSPEELKGIFESYAAKEGDPNQLSKEELKLLLQTEFPSLLKGPSTLDELFEELDKNGDGEVSFEEFQVLVKKISQ was -0.042 ± 0.067.
The value for MSAKKSPEELKGIFENYAAKEGDPNQLSKEELKLLLQTEFPSLLKGPSTLDELFEELDKNGDGEVSFEEFQVLVKKISQ was -0.07 ± 0.093.
Turning to MSAKKSPEELKGIFECYAAKEGDPNQLSKEELKLLLQTEFPSLLKGPSTLDELFEELDKNGDGEVSFEEFQVLVKKISQ, the abundance fitness is -0.12 ± 0.086.
The value for MSAKKSPEELKGIFEDYAAKEGDPNQLSKEELKLLLQTEFPSLLKGPSTLDELFEELDKNGDGEVSFEEFQVLVKKISQ was -0.18 ± 0.091.
The value for MSAKKSPEELKGIFEHYAAKEGDPNQLSKEELKLLLQTEFPSLLKGPSTLDELFEELDKNGDGEVSFEEFQVLVKKISQ was -0.101 ± 0.093; that for MSAKKSPEELKGIFEVYAAKEGDPNQLSKEELKLLLQTEFPSLLKGPSTLDELFEELDKNGDGEVSFEEFQVLVKKISQ was -0.179 ± 0.067.
With MSAKKSPEELKGIFEFYAAKEGDPNQLSKEELKLLLQTEFPSLLKGPSTLDELFEELDKNGDGEVSFEEFQVLVKKISQ the figure was -0.087 ± 0.087; with MSAKKSPEELKGIFEPYAAKEGDPNQLSKEELKLLLQTEFPSLLKGPSTLDELFEELDKNGDGEVSFEEFQVLVKKISQ, -0.34 ± 0.076; with MSAKKSPEELKGIFEWYAAKEGDPNQLSKEELKLLLQTEFPSLLKGPSTLDELFEELDKNGDGEVSFEEFQVLVKKISQ, -0.176 ± 0.079.
In the case of MSAKKSPEELKGIFETYAAKEGDPNQLSKEELKLLLQTEFPSLLKGPSTLDELFEELDKNGDGEVSFEEFQVLVKKISQ, the abundance fitness was -0.087 ± 0.077.
With MSAKKSPEELKGIFEIYAAKEGDPNQLSKEELKLLLQTEFPSLLKGPSTLDELFEELDKNGDGEVSFEEFQVLVKKISQ the figure was -0.184 ± 0.091; with MSAKKSPEELKGIFERYAAKEGDPNQLSKEELKLLLQTEFPSLLKGPSTLDELFEELDKNGDGEVSFEEFQVLVKKISQ, -0.082 ± 0.064.
With MSAKKSPEELKGIFELYAAKEGDPNQLSKEELKLLLQTEFPSLLKGPSTLDELFEELDKNGDGEVSFEEFQVLVKKISQ, the abundance fitness is -0.031 ± 0.062.
The value for MSAKKSPEELKGIFEQYAAKEGDPNQLSKEELKLLLQTEFPSLLKGPSTLDELFEELDKNGDGEVSFEEFQVLVKKISQ was -0.122 ± 0.079.
